Experimental data: patent publication US20150291951

Legend:
Assay in all cases: cell_activity
[1] = test system: crhr1 right TALEN +63 (synthetic construct (Xanthomonas TALE-FokI)); details: pair with P5, 15 bp spacer; 15-fold over +231
[2] = test system: crhr1 right TALEN +231 (synthetic construct (Xanthomonas TALE-FokI)); details: pair with P7
[3] = test system: ponzr1 right TALEN +231 (pTAL) (synthetic construct (Xanthomonas TALE-FokI)); details: pair with P3; zebrafish larvae
[4] = test system: ponzr1 left TALEN +231 (pTAL) (synthetic construct (Xanthomonas TALE-FokI)); details: pair with P4; zebrafish larvae
[5] = test system: crhr1 left TALEN +231 (synthetic construct (Xanthomonas TALE-FokI)); details: pair with P8
[6] = test system: crhr1 left TALEN +63 (synthetic construct (Xanthomonas TALE-FokI)); details: pair with P6, 15 bp spacer; 15-fold over +231

## CTGCTGCCGACTGGACCCTGAGGT (double strand) [crhr1 right half-site]
[1]
  activity (% modification (median)): 7
[2]
  activity (% modification (median)): < 1

## ATCAGAACAACAGTCAGAGAT (double strand) [ponzr1 right half-site]
[3]
  activity (% modification (median)): 5

## GTGAGCACCCAGCGGACCTCCTCT (double strand) [ponzr1 left half-site]
[4]
  activity (% modification (median)): 5

## TGCAACACTGAGCTCTGTAAACCT (double strand) [crhr1 left half-site]
[5]
  activity (% modification (median)): < 1
[6]
  activity (% modification (median)): 7
